For test [1], the target named is Litopenaeus vannamei Proliferating Cell Nuclear Antigen (Litopenaeus vannamei). As to the kind of experiment: SEC; purified LvPCNA at 1 mg/ml on a Superdex 200 column, elution compared with known molecular-mass standards. A general note: Size exclusion chromatography separates by hydrodynamic size, large species first.
Test [2] shares this target. The experiment in a line: crystal structure; X-ray, 3 Å, space group C2; crystals from 300 mM CaCl2, 100 mM sodium HEPES pH 7.5, 30% v/v PEG 400; molecular replacement.

Take “Litopenaeus vannamei Proliferating Cell Nuclear Antigen (natural protein)”: the stoichiometry N in test [1] and in test [2] was 3 in each case.

(Values after article PMC3984155.)
